Where no end group is shown, it is not given here.
How the values were obtained:
NbALFAPE = experiment: SPR; ligand TST-NEDD8-ALFA
[1] = target: T1, ALFA-tagged target immobilized for SPR (TST-NEDD8-ALFA or GFP-ALFA) (synthetic construct, not fully specified); experiment: SPR; ligand GFP-ALFA
T1 chain: SRLEEELRRRLTE

B1: ALFA-tagged target immobilized for SPR (TST-NEDD8-ALFA or GFP-ALFA) (other)
chain: SRLEEELRRRLTE
Question: How did the Kd (NbALFAPE) turn out when B1 was run?
Answer: 11 nM

Question: And the koff (NbALFAPE)?
Answer: 0.0029 s⁻¹

B2: NbALFA (non-tagged) (VHH)
VHH: EVQLQESGGGLVQPGGSLRLSCTASGVTISALNAMAMGWYRQAPGERRVMVAAVSERGNAMYRESVQGRFTVTRDFTNKMVSLQMDNLKPEDTAVYYCHVLEDRVDSFHDYWGQGTQVTVSS
Question: Which koff [1] does the source give for B2 here?
Answer: 9.4e-06 s⁻¹

Reference: PMC6764986 (2019)
